One assay has as its target human C3b. Put plainly: ELISA. To be noted: chain shown with the change; human C3b-coated plates; value read at 50 nM protein (highest concentration); parent: est. 0.69; read off a plot. (In general: An ELISA detects its analyte on a solid surface through an enzyme-linked reagent.)
The target of another assay is T1, FHR-B_(Y162H).
T1 chain: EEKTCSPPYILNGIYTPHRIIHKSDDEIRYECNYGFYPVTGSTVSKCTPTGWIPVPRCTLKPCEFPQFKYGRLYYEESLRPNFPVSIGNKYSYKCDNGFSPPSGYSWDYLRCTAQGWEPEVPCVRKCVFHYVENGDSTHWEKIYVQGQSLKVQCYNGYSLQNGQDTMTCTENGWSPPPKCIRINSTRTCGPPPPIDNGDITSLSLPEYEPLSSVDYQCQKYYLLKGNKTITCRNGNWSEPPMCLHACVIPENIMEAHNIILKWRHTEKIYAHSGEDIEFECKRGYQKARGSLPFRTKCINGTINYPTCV
Put plainly: AUC (analytical ultracentrifugation, sedimentation velocity), self-association (dimerization). The conditions noted are these: chain shown with the change; PBS pH 7; parent: est. 1.0; read off a plot.

The target of a further assay is T2, FHR-B_(T161A,I166V).
T2 chain: T1 chain with T138A, H139Y, I143V
Described as above. To be noted: chain shown with the change; PBS pH 7; parent: est. 1.0; read off a plot.

Where a chain is given by its changes, count along the chain named. Names and notes keep the numbering of the source.

human C3b, sequence (chain, as listed by the source, chain 1 of 2): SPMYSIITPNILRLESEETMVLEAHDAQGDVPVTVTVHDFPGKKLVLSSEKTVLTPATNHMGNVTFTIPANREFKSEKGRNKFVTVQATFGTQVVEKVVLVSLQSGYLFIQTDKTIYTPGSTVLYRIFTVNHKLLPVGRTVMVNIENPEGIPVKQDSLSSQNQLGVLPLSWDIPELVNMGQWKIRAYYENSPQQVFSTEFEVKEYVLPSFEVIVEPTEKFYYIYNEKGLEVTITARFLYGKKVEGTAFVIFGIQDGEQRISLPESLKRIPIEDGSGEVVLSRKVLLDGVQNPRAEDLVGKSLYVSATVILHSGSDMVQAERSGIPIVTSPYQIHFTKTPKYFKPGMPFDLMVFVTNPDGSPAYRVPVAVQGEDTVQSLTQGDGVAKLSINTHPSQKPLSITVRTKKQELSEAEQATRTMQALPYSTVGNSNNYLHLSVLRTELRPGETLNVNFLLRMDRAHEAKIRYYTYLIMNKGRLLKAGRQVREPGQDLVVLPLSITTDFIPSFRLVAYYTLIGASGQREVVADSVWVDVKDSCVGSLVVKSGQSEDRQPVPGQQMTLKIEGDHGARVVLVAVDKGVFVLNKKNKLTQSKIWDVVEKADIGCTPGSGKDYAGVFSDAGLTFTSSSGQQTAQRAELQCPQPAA
human C3b, sequence (chain, as listed by the source, chain 2 of 2): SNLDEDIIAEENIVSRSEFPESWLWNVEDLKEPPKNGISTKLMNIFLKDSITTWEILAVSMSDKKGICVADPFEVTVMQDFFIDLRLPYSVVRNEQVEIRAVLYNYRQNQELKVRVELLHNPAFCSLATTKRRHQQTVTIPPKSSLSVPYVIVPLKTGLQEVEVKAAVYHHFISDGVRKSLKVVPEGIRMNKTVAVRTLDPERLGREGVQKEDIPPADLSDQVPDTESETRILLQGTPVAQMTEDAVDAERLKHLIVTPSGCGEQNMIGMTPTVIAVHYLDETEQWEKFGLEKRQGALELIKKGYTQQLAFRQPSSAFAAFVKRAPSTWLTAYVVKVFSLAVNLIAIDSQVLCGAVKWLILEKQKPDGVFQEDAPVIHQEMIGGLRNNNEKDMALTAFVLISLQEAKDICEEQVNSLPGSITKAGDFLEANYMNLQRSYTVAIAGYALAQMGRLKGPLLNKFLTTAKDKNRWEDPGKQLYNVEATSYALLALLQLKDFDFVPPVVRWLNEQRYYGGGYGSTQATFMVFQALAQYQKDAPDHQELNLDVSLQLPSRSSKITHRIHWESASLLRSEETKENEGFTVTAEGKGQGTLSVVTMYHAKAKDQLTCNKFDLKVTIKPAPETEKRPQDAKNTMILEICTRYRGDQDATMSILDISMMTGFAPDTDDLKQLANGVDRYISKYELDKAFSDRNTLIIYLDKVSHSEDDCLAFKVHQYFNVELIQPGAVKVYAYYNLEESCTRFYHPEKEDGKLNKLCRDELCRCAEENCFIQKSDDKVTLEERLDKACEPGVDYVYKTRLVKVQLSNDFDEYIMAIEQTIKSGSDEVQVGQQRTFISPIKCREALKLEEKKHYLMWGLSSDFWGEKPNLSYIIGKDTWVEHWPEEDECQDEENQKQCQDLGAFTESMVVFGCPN

B1: recombinant form of the native mouse FHR-B protein (rFHR-B) Y162H (protein)
chain: T1 chain
Turning to B1, the response with human C3b came to 0.66 Abs 405nm. Besides, in the assay with FHR-B_(Y162H), the other: c(S) height of dimer peak (normalised distribution) came to 0.09.

B2: recombinant form of the native mouse FHR-B protein (rFHR-B) T161A; I166V (protein)
chain: T1 chain with T138A, H139Y, I143V
Consider B2, for which, in the assay with human C3b, the response is 0.66 Abs 405nm. In addition, the other: c(S) height of dimer peak (normalised distribution) in the assay with FHR-B_(T161A,I166V) worked out at 0.13.

Values taken from article PMC11813886.
